Source: US20250163127A1
Substitutions are numbered along the chain they refer to. In names and notes the source's numbering stands.

B1: CD80 variant A26E/Q33R/E35D/M47L/L85Q/K86E IgV-Fc (Fc fusion)
chain: VIHVTKEVKEVATLSCGHNVSVEELEQTRIYWRKDKKMVLTMMSGDLNIWPEYKNRTIFDITNNLSIVILALRPSDEGTYECVVQEYEKDAFKREHLAEVT
B2: CD80 variant H18Y/V20A/Q33L/E35D/M47V/Y53F IgV-Fc (Fc fusion)
chain: B1 chain with H18Y, V20A, E26A, R33L, L47V, Y53F, Q85L, E86K
B3: CD80 variant Q33L/E35D/T41S/M47V IgV-Fc (Fc fusion)
chain: B1 chain with E26A, R33L, T41S, L47V, Q85L, E86K
B4: CD80 variant A26E/E35D/M43T/M47L/L85Q/R94Q IgV-Fc (Fc fusion)
chain: B1 chain with R33Q, M43T, E86K, R94Q
B5: CD80 variant A26E/Q33R/E35D/M47L/L85Q IgV-Fc (Fc fusion)
chain: B1 chain with E86K
B6: CD80 variant H18L/V22A/E35D/M47L/N48T/L85Q IgV-Fc (Fc fusion)
chain: B1 chain with H18L, V22A, E26A, R33Q, N48T, E86K
B7: CD80 variant Q33L/E35D/T41S/M43I IgV-Fc (Fc fusion)
chain: B1 chain with E26A, R33L, T41S, M43I, L47M, Q85L, E86K
B8: CD80 variant E35D/M47I/E77A/L85Q/R94W IgV-Fc (Fc fusion)
chain: B1 chain with E26A, R33Q, L47I, E77A, E86K, R94W
B9: CD80 variant H18Y/Q33L/E35D/M47I IgV-Fc (Fc fusion)
chain: B1 chain with H18Y, E26A, R33L, L47I, Q85L, E86K
B10: CD80 variant H18Y/A26E/Q33L/E35D/M47L/L85Q IgV-Fc (Fc fusion)
chain: B1 chain with H18Y, R33L, E86K
B11: CD80 variant Q33L/E35D/M47I/T62N/L85Q IgV-Fc (Fc fusion)
chain: B1 chain with E26A, R33L, L47I, T62N, E86K
B12: CD80 variant Y31S/E35D/M47L/T79L/E88G IgV-Fc (Fc fusion)
chain: B1 chain with E26A, Y31S, R33Q, T79L, Q85L, E86K, E88G
B13: CD80 variant Q33L/E35D/M47I IgV-Fc (Fc fusion)
chain: B1 chain with E26A, R33L, L47I, Q85L, E86K
B14: CD80 variant Q33K/E35D/D46V/L85Q IgV-Fc (Fc fusion)
chain: B1 chain with E26A, R33K, D46V, L47M, E86K
B15: CD80 variant V22A/E23D/Q33L/E35D/M47V IgV-Fc (Fc fusion)
chain: B1 chain with V22A, E23D, E26A, R33L, L47V, Q85L, E86K
B16: CD80 variant H18Y/E35D/M47L IgV-Fc (Fc fusion)
chain: B1 chain with H18Y, E26A, R33Q, Q85L, E86K
B17: CD80 variant Q33L/E35D/M47V/L85Q IgV-Fc (Fc fusion)
chain: B1 chain with E26A, R33L, L47V, E86K
B18: CD80 variant A26E/Q33L/E35D/M47L IgV-Fc (Fc fusion)
chain: B1 chain with R33L, Q85L, E86K
B19: CD80 variant E35D/M47L/L85Q IgV-Fc (Fc fusion)
chain: B1 chain with E26A, R33Q, E86K
B20: CD80 variant E7D/E35D/M47I/L97Q IgV-Fc (Fc fusion)
chain: B1 chain with E7D, E26A, R33Q, L47I, Q85L, E86K, L97Q
B21: CD80 variant Q27H/Q33L/E35D/M47V/N55D/L85Q/K89N IgV-Fc (Fc fusion)
chain: B1 chain with E26A, Q27H, R33L, L47V, N55D, E86K, K89N
B22: CD80 variant A26E/Q33L/E35D/M47L/L85Q IgV-Fc (Fc fusion)
chain: B1 chain with R33L, E86K
B23: CD80 variant Q33L/E35D/M47I/L85Q IgV-Fc (Fc fusion)
chain: B1 chain with E26A, R33L, L47I, E86K
B24: CD80 variant V22A/E35D/V68E/A71D IgV-Fc (Fc fusion)
chain: B1 chain with V22A, E26A, R33Q, L47M, V68E, A71D, Q85L, E86K
B25: CD80 variant Q33K/E35D/M47V/K89E/K93R IgV-Fc (Fc fusion)
chain: B1 chain with E26A, R33K, L47V, Q85L, E86K, K89E, K93R
B26: ICOSL ECD-Fc N84Q (Fc fusion)
chain: DTQEKEVRAMVGSDVELSCACPEGSRFDLNDVYVYWQTSESKTVVTYHIPQNSSLENVDSRYRNRALMSPAGMLRGDFSLRLFQVTPQDEQKFHCLVLSQSLGFQEVLSVEVTLHVAANFSVPVVSAPHSPSQDELTFTCTSINGYPRPNVYWINKTDNSLLDQALQNDTVFLNMRGLYDVVSVLRIARTPSVNIGCCIENVLLQQNLTVGSQTGNDIGERDKITENPVSTGEKNAAT
B27: ICOSL ECD-Fc N52Q/N119Q/N155Q (Fc fusion)
chain: B26 chain with N52Q, Q84N, N119Q, N155Q
B28: ICOSL ECD-Fc N84Q/N168Q/N207Q (Fc fusion)
chain: B26 chain with N168Q, N207Q
B29: ICOSL ECD-Fc N119Q/N207Q (Fc fusion)
chain: B26 chain with Q84N, N119Q, N207Q
B30: ICOSL ECD-Fc N119Q/N168Q/N207Q (Fc fusion)
chain: B26 chain with Q84N, N119Q, N168Q, N207Q
B31: ICOSL ECD-Fc N168Q (Fc fusion)
chain: B26 chain with Q84N, N168Q
B32: ICOSL ECD-Fc N155Q/N207Q (Fc fusion)
chain: B26 chain with Q84N, N155Q, N207Q
B33: ICOSL ECD-Fc N84Q/N119Q (Fc fusion)
chain: B26 chain with N119Q
B34: ICOSL ECD-Fc N52Q/N84Q/N119Q/N207Q (Fc fusion)
chain: B26 chain with N52Q, N119Q, N207Q
B35: ICOSL ECD-Fc N119Q/N168Q (Fc fusion)
chain: B26 chain with Q84N, N119Q, N168Q
B36: ICOSL ECD-Fc N52Q/N84Q (Fc fusion)
chain: B26 chain with N52Q

target: CTLA4 (human); test: flow cytometry, CHO cells stably expressing CTLA4
Sequence (chain, as listed by the source): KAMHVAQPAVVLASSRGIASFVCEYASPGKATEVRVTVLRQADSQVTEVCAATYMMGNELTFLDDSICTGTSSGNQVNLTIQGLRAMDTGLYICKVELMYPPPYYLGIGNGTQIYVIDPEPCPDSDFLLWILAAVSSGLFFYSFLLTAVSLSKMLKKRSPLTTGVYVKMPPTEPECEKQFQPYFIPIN

Fold change to WT CD80 [fold] | MFI at 33.3 nM [MFI] | Binder
0.01 | 1280 | B1
0.02 | 2880 | B2
0.08 | 14500 | B3
1.56 | 278000 | B4
0.01 | 1280 | B5
2.09 | 374000 | B6
0.04 | 6390 | B7
1.38 | 247000 | B8
0.03 | 5540 | B9
0.01 | 2090 | B10
0.01 | 1660 | B11
0.01 | 1100 | B12
0.09 | 15900 | B13
0.05 | 8510 | B14
0.02 | 3640 | B15
1.59 | 284000 | B16
0.42 | 75400 | B17
0.01 | 1320 | B18
1.88 | 336000 | B19
1.52 | 271000 | B20
0.31 | 56100 | B21
0.01 | 1170 | B22
0.11 | 20500 | B23
2.45 | 437000 | B24

target: CD28 (human) (UniProt P10747); test: flow cytometry, Jurkat cells (CD28)

Fold change to WT [fold] | MFI at 33.3 nM [MFI] | Binder
0.04 | 275 | B1
0.03 | 260 | B2
0.04 | 287 | B3
0.03 | 260 | B4
0.03 | 264 | B5
0.06 | 434 | B6
0.06 | 433 | B7
0.04 | 272 | B8
0.04 | 295 | B9
0.04 | 272 | B10
0.04 | 284 | B11
0.04 | 278 | B12
0.04 | 282 | B13
0.03 | 257 | B14
0.04 | 274 | B15
0.66 | 5070 | B16
0.04 | 268 | B17
0.04 | 271 | B18
0.08 | 646 | B19
0.04 | 273 | B20
 | 276 | B25
0.04 | 269 | B21
0.04 | 274 | B22
0.04 | 287 | B23
1.83 | 14000 | B24

target: CD28 (human) (UniProt P10747); test: flow cytometry, transfected cells

MFI [MFI] | Binder
1760 | B26
552 | B27
737 | B28
1860 | B29
921 | B30
1410 | B31
1490 | B32
1490 | B33
602 | B34
2530 | B35
1680 | B36

target: PD-L1 (human); test: flow cytometry, CHO cells stably expressing PD-L1
Sequence (chain, as listed by the source): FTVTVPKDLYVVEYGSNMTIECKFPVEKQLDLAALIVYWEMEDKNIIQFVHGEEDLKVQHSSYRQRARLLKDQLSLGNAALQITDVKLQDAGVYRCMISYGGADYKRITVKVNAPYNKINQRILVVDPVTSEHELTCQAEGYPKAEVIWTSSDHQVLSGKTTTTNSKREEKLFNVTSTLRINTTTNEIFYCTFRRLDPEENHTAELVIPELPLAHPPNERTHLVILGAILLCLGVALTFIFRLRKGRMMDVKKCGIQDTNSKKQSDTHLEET

Fold change to WT [fold] | MFI at 33.3 nM [MFI] | Binder
9.56 | 76000 | B1
15.2 | 121000 | B2
5.52 | 43800 | B3
8.57 | 68100 | B4
10.3 | 81500 | B5
12.3 | 98100 | B6
5.66 | 44900 | B7
8.12 | 64500 | B8
6.02 | 47800 | B9
9.64 | 76600 | B10
9.14 | 72600 | B11
4.9 | 38900 | B12
4.7 | 37400 | B13
3.36 | 26700 | B14
9.51 | 75500 | B15
5.56 | 44200 | B16
5.97 | 47400 | B17
7.67 | 60900 | B18
4.18 | 33200 | B19
1.84 | 14600 | B20
 | 39100 | B25
1.86 | 14800 | B21
7.89 | 62700 | B22
8.05 | 63900 | B23
0.17 | 1350 | B24
